Values quoted from earlier work as cited in article PMC4188015.

How the values were obtained:
[1] = target: Human insulin (Homo sapiens) (UniProt P01308); test: ITC
[2] = target: insulin receptor isoform A (Homo sapiens) (UniProt P06213)
[3] = target: insulin receptor site 2 (Homo sapiens) (UniProt P06213)
[4] = target: insulin receptor site 1 (Homo sapiens) (UniProt P06213)

Substance: Human insulin (from UniProt P01308)
- Kd [1]: 8810 nM

Substance: IGF-II (from UniProt P01344)
- Kd [2]: 4 nM

Substance: insulin (from UniProt P01308)
- Kd [3]: 400 nM
- Kd [4]: 6.4 nM
